According to patent publication US20250355001A1, “METHOD FOR DETECTING A TAU PROTEIN FRAGMENT IN A SAMPLE” (GTINVENT LIMITED, priority 2022, published 2025):

Tests used:
[1] = test system: hT40, dGA, dGAE and truncated tau fragments; test: Binding ELISA / epitope mapping of anti-tau scAbs with truncated tau proteins and 13mer peptides; design: species or system human; settings: for Tau proteins/fragments with positive scAb reactivity: binding ELISA; for Shortest region bound on hT40: incl. 13mer peptides
Method in brief: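 Plates coated with 1 μg/ml tau protein, or 5 μg/ml streptavidin then 1 μg/ml biotinylated 13mer peptide; blocked with 2% MPBS. scAbs added at a starting concentration and double-diluted. Bound scAb detected with HRP anti-human C kappa and read as absorbance.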

[2] = biological target: T1, hT40 (T441, SEQ ID NO: 1) (Homo sapiens, UniProt P10636); test: Biacore X100 SPR kinetics of scAbs for hT40; type: binding; settings: Table 23; scAb captured, T441 (hT40) analyte; 1:1 model
T1 construct: Full length tau (hT40)
T1 sequence (P10636 1-441 isoform P10636-8): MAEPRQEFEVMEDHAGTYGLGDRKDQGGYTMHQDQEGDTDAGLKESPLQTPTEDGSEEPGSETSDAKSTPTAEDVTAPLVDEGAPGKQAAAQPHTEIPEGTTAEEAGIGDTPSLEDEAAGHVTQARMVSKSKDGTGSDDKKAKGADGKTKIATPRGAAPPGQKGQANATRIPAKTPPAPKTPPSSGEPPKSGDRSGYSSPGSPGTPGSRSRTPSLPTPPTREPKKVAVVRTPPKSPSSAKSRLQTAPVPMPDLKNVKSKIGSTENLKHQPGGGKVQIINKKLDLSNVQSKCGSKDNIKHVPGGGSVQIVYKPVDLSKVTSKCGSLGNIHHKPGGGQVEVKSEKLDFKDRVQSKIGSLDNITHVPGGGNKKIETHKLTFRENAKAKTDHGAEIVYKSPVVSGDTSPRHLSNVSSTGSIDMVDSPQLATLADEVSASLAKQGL
Procedure: Surface plasmon resonance (SPR) is widely regarded as the gold standard for real time measurement of protein-protein interactions such as antibody binding. All SPR experiments were carried out using a Biacore X100 machine and HBS EP+ running buffer (GE Healthcare). A ‘capture’ method was followed for affinity measurements, where an anti-human constant kappa chain (HuCk) antibody was conjugated to the surface of a CM5 sensor chip using an amine coupling kit and scAb molecules were immobilised via their HuCk domain. Amine coupling is a very common approach for immobilising the ligand to the chip surface. […] The capture antibody was diluted 1/100 in 10 mM Sodium acetate buffer pH 5.0 and passed over the activated chip surface for a period of at least 420 s. Final ligand immobilisation levels over 12,000 RU were deemed to be satisfactory.
(§1) Following immobilisation, the level of each scAb to be captured was identified using the standard SPR equation with a theoretical RMax of 100 RU. Analyte MW refers to the molecular weight of hT40 or dGA/dGAE molecules, while ligand MW refers to the molecular weight of the scAbs tested. RL is the desired capture level and S refers to the stoichiometric ratio:
The scAb to be tested was added only to flow cell 2 so that flow cell 1 could act as a control to subtract any interaction with the analyte and the chip surface. Both single and multi-cycle runs were utilised using wizards developed in the Biacore X100 control software which are both accepted methods of kinetic analysis (Karlsson, R., et al. Analyzing a kinetic titration series using affinity biosensors (2006) Analytical Biochemistry 349:136-47). The multi-cycle protocol was as follows-Three start-up cycles composed of an initial capture, to the desired level, of the scAb to be tested was performed followed by a 30 s injection of glycine buffer pH 2.0 after each cycle to regenerate the chip surface. […] Following three start-up cycles increasing concentrations (0.15625 nM-100 nM) of the target to be tested were added to the chip surface after the desired scAb capture. The target was added for a 120 s association period and 420 s dissociation period followed by another regeneration, 30 s injection of glycine buffer pH 2.0 in between each cycle.
(§2) The single cycle kinetics protocol was similar and utilised the same level of scAb capture. Three start-up cycles were used followed by 5 increasing concentrations of the analyte (6.25 nM-100 nM) for an association period of 120 s followed by a dissociation period of 420 s for each concentration. In single cycle kinetics the regeneration step was performed only after the final analyte concentration was added. Binding responses were analysed in Biacore X100 evaluation software and data fitted to a 1:1 binding model to obtain kinetic and affinity characterisation.

dGA (SEQ ID NO: 5) = dGA (SEQ ID NO: 5) (Homo sapiens, UniProt P10636); test: Biacore X100 SPR kinetics of scAbs for dGA; type: binding; settings: Table 24, scAb, dGA analyte; for Kd: dissociation rate
Chain of dGA (SEQ ID NO: 5) (P10636 614-707): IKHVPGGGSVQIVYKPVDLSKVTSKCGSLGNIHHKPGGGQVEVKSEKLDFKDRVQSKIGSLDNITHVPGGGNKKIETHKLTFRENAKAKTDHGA
Procedure: Surface plasmon resonance (SPR) is widely regarded as the gold standard for real time measurement of protein-protein interactions such as antibody binding. All SPR experiments were carried out using a Biacore X100 machine and HBS EP+ running buffer (GE Healthcare). A ‘capture’ method was followed for affinity measurements, where an anti-human constant kappa chain (HuCk) antibody was conjugated to the surface of a CM5 sensor chip using an amine coupling kit and scAb molecules were immobilised via their HuCk domain. Amine coupling is a very common approach for immobilising the ligand to the chip surface. The chip surface has a dextran matrix derivatised with carboxyl groups, which after activation with N-hydroxysuccinimide (NHS) and 1-ethyl-3-(3-dimethylaminopropyl) carbodiimide (EDC), form reactive succinimide esters which allows the covalent capturing of the ligand via any available primary amine groups (e.g. Lysine) on the ligand (in this case anti-HuCk antibody). The capture antibody was diluted 1/100 in 10 mM Sodium acetate buffer pH 5.0 and passed over the activated chip surface for a period of at least 420 s. Final ligand immobilisation levels over 12,000 RU were deemed to be satisfactory.
as §1
The scAb to be tested was added only to flow cell 2 so that flow cell 1 could act as a control to subtract any interaction with the analyte and the chip surface. Both single and multi-cycle runs were utilised using wizards developed in the Biacore X100 control software which are both accepted methods of kinetic analysis (Karlsson, R., et al. Analyzing a kinetic titration series using affinity biosensors (2006) Analytical Biochemistry 349:136-47). The multi-cycle protocol was as follows-Three start-up cycles composed of an initial capture, to the desired level, of the scAb to be tested was performed followed by a 30 s injection of glycine buffer pH 2.0 after each cycle to regenerate the chip surface. The regeneration step removed any captured scAb whilst leaving the capture antibody intact and able to repeat the capture for the next cycle. Following three start-up cycles increasing concentrations (0.15625 nM-100 nM) of the target to be tested were added to the chip surface after the desired scAb capture. The target was added for a 120 s association period and 420 s dissociation period followed by another regeneration, 30 s injection of glycine buffer pH 2.0 in between each cycle.
as §2

dGAE aggregates = dGAE aggregates (Homo sapiens, UniProt P10636); test: Epitope occlusion assay: dGAE aggregation with/without LMTM, 423 mAb capture ELISA; type: biochemical; settings: total and supernatant samples; 423 mAb capture
Chain of dGAE aggregates (P10636 614-708): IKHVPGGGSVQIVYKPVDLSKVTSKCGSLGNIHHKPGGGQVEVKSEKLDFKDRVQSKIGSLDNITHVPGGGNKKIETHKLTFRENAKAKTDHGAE
Procedure: During dGAE aggregation in vitro, scAb binding regions on dGA/dGAE are ‘hidden’ or ‘occluded’ which leads to a loss of immunoreactivity in aggregation samples. Here we have shown the occlusion of binding regions in aggregated dGAE samples and the recovery of immunoreactivity in the presence of LMTM, a tau-aggregation inhibitor. For preparing the aggregates, 10 μl 10 mM DTT was added to 1000 μl 100 μM dGAE and agitated with/without LMTM (1:5 ratio) at 700 rpm for 24 h at 37° C. Following overnight agitation, one third of each sample was kept aside as ‘total’ and the rest was spun down at 16000×g for 30 min and separated into ‘supernatant’ and ‘pellet’. The pellet was then resuspended in half the original volume for further experiments. […] Doubling dilutions of dGAE aggregate ‘total’, ‘supernatant’ and ‘pellet’ samples at 10 μg/ml starting concentration were added to designated wells in doubling dilutions in 1×PBS. dGAE monomer (non-aggregated) was included as assay control. All double dilutions were done in final volumes of 100 μl. This was left to incubate on lab bench for 1 h followed by the addition of test scAbs at 10 μg/ml. Anti-HuCk HRP labelled secondary antibody was added as described previously and ELISA data generated is represented using the graph below.

htau40 = biological target: T2, htau40 (Homo sapiens, UniProt P10636); test: Biacore X100 SPR kinetics of anti-tau mAbs on immobilised htau40; type: binding; settings: Table 27; mAb format, immobilised htau40
T2 construct: Full length tau (hT40)
T2 sequence (P10636 1-441 isoform P10636-8): as the sequence (P10636 1-441 isoform P10636-8) above
Procedure: For anti-tau mAb SPR measurements, htau40 was conjugated to the surface of a CM5 sensor chip using amine coupling as explained previously. Briefly, 2 μg/mL htau40 in 10 mM Sodium acetate buffer (pH 4.0) was passed over the activated chip surface (EDC/NHS) in flow cell 2 for a period for 45 s followed by blocking with 1 M ethanolamine-HCl PH 8.5. Flow cell 1 was set up as reference control and blocked simultaneously. Final immobilisation level of htau40 (Rmax) was approximately 250 RU. Following a minimum of three start-up cycles, increasing concentrations (0.78 nM-25 nM) of the mAb in HBS-EP+ buffer was added at a rate of […] to the chip. The mAb was added for a 120 s association period and 600 s dissociation period followed by a regeneration cycle of 30 s injection of glycine buffer pH 1.5 in between each cycle. Binding responses were analysed in Biacore X100 evaluation software and data fitted to a 1:1 binding model to obtain kinetic and affinity characterisation.
For anti-tau mAb SPR measurements (Biacore X100™) and epitope mapping, the same methodologies described above (see Example 16) were followed. Kinetic rates and equilibrium binding constants of additional anti-tau mAbs and the regions recognised on hT40 are given in the Table 25 below

[3] = Table 26 summary, top scAbs, residues of hT40
[4] = residue numbers of SEQ ID NO: 1 (hT40), CDR Tables 1-11

B1: S1E12: anti-tau clone, Table 11; SEQ ID NO: 218 (protein)
scFv: QVQLQESGPSLVKPSQTLSLTCTVSGFSLGSNSVGWVRQAPGKAPEWVAGIDTDGEEGYNPALNSRLSITRDTSKSQVSLSLSSVTSEDTAVYYCGRSYRADGLAYGYVQAIDYWGPGLLVTVSSEGKSSGASGESKVDDRVVRTQPSSVSGSLGQRVSITCSGSFIGISSVGWFQQLPGSGLRTIIVASDGRPSGVPDRFSMSKSGNTATLTISSLQAEDEADYFCGSSDRTQYTGVFGSGTRLTVLG
modifications: S1E12 amino acid sequence
With B1 the “Tau proteins/fragments with positive scAb reactivity” value (“Tau proteins/fragments” below) ([1]; Table 16, NS, S and M clones) was “hT40, 297-390 (dGA), 297-391 (dGAE)”, the “Shortest region bound on hT40” value ([1]; Table 16, NS, S and M clones) was 297-390 and the Epitope [1, 3] was 297-390. For the same molecule, the Epitope [1, 4] was 297-390, the “ka” value [2] was 385000 M⁻¹ s⁻¹ and the “kd” value [2] was 0.000319 s⁻¹. The “ka” value (dGA (SEQ ID NO: 5)) was 2.99e+06 M⁻¹ s⁻¹ and the “Kd” value (dGA (SEQ ID NO: 5)) was 0.001627 s⁻¹.

B2: CB3: anti-tau core clone, Table 10; SEQ ID NO: 370 (protein)
scFv: QVQLQESGPSLVKPSQTLSLTCTVSGFSLSSVAVNWVRQAPGKVPEWLGGIISNGGTGYNPALKSRLSITRDTSKSQVSLALTHVTTEDTAVYYCGRGVEWEGSMDYLGPGLLVTVSSEGKSSGSGSETKVDDQSVLTQPSSVSGFLGQRVTITCSGSSSNVGAGSYVGWYQQVPGSGLRILIYGATKRASGLPDRFSGSRSGNTATLTISSLQAEDEADYYCVSYQTDFTLVFGSGTRLTVLG
modifications: CB3 amino acid sequence
B2 was tested, and the “Tau proteins/fragments” value ([1]; Table 17, 'C' group scAbs) was “hT40, 297-390 (dGA)”, the “Shortest region bound on hT40” value ([1]; Table 17, 'C' group scAbs) was 360-390 and the Epitope [1, 4] was 360-390. For the same molecule, the “immunoreactivity to dGAE aggregation samples prepared in the presence of LMTM” value (dGAE aggregates) was “increase in immunoreactivity”.

B3: CE3: anti-tau core clone, Table 10; SEQ ID NO: 367 (protein)
scFv: QVRLQESGPSLVKPSQTLSVTCTVSGFSLISNAVGWVRQAPGKVPESLAGCSSDGKCYYNSALKSRLDITRDTSKNQISLSLSSVTTDDAAVYYCTRGYYPVYGYDYLGTIDYWGPGLLVTVSSEGKSSGASGESKVDDQAVLTQPSSVSGSLGQRVSITCSGSSSNVGRNDVAWFQQLPGSGLRTIIYGTTSRPSGIPDRFSGSKSGVTATLTIDSLQAEDEADYFCASGDSSAINDIFGSGTRLTVLG
modifications: CE3 amino acid sequence
With B3 the “Tau proteins/fragments” value ([1]; Table 17, 'C' group scAbs) was “hT40, 266-359 (R1-3)”, the “Shortest region bound on hT40” value ([1]; Table 17, 'C' group scAbs) was 331-360 and the Epitope [1, 3] was 331-360. For the same molecule, the Epitope [1, 4] was 331-360, the “ka” value [2] was 174500 M⁻¹ s⁻¹ and the “kd” value [2] was 0.000662 s⁻¹. The “ka” value (htau40) was 103000 M⁻¹ s⁻¹, the “kd” value (htau40) was 0.001718 s⁻¹ and the “immunoreactivity to dGAE aggregation samples prepared in the presence of LMTM” value (dGAE aggregates) was “increase in immunoreactivity”.

B4: NS2A1: anti-tau clone, Table 11; SEQ ID NO: 220 (protein)
scFv: QVQLQESGPSLVKPSQTLSLTCTVSGFSLSTNSVGWVRQAPGKAPEWVAGIDTDGEEGFNPVLKSRLSITRDTSKSQVSLSLSNVTSEDTAVYYCGRSYRTDGLAYGYVQAIDYWGPGLLVTISSEGKSSGASGESKVDDQSVLTQPSSVSGSPGQTVSITCSGSYIGSSGVGWFQQLPGSGLRTIIVASDGRPSGVPDGFSMSKSGNTATLTISSLQAEDEADYFCGSSDRTQYTGLFGSGTRLTVLG
modifications: NS2A1 amino acid sequence
In the case of B4, the “Tau proteins/fragments” value ([1]; Table 16, NS, S and M clones) is reported as “hT40, 297-390 (dGA), 297-391 (dGAE)”, the Epitope [1, 3] is reported as 297-390 and the Epitope [1, 4] is reported as 297-390. For the same molecule, the “ka” value [2] was 252100 M⁻¹ s⁻¹, the “kd” value [2] was 0.0007393 s⁻¹ and the “ka” value (dGA (SEQ ID NO: 5)) was 188000 M⁻¹ s⁻¹. The “Kd” value (dGA (SEQ ID NO: 5)) was 0.00102 s⁻¹, the “ka” value (htau40) was 893700 M⁻¹ s⁻¹ and the “kd” value (htau40) was 0.002621 s⁻¹.
